From publication PMC10241049, “Derivation of the small-angle scattering profile of a target biomacromolecule from a profile deteriorated by aggregates. AUC–SAS” (Journal of Applied Crystallography, 2023) come the findings set out here.

This series deals with the molecule itself. Briefly: AUC + other: small-angle X-ray scattering (AUC-SAS); sedimentation velocity AUC (45 000 r/min, interference optics) and laboratory SAXS, 298 K; 2.0 mg/ml in 100 mM Tris-HCl pH 7.5, 100 mM NaCl; the derived profile of the main component was compared with the structure of the 24-mer and with SEC-SAXS. (In general: Size exclusion chromatography separates by hydrodynamic size, large species first.)

B1: apoferritin (natural protein)
chain: SSQIRQNYSTEVEAAVNRLVNLYLRASYTYLSLGFYFDRDDVALEGVCHFFRELAEEKREGAERLLKMQNQRGGRALFQDLQKPSQDEWGTTLDAMKAAIVLEKSLNQALLDLHALGSAQADPHLCDFLESHFLDEEVKLIKKMGDHLTNIQRLVGSQAGLGEYLFERLTLKHD
notes: apoferritin; it uses PDB 4v1w as the structure of this protein; PDB 4v1w is horse spleen apoferritin (light chain); also called AF; AF5; source: bought: Merck, Sigma-Aldrich; purified by SEC (Superose 6 Increase 10/300 GL); copies: 24
As usually defined, the stoichiometry N is the number of molecules, sites or subunits per partner or assembly. Regarding B1, the “stoichiometry N” value was 24.
